Measurements taken from FireProtDB (doi:10.1016/s0014-5793(99)00158-1).

B1: Barstar, P11540 (parent)
chain: MKKAVINGEQIRSISDLHQTLKKELALPEYYGENLDALWDCLTGWVEYPLVLEWRQFEQSKQLTENGAESVLQVFREAKAEGCDITIILS

Variants of: B1
Conditions: Bacillus amyloliquefaciens; pH 6.2; Thermal; DSC; Na-acetate 10 mM; NaCl 0.05 M; reversible: yes; structure 1BTA; whole UniProt chain shown

Variant | Tm [°C] | unfolding enthalpy (calorimetric) [kcal/mol] | unfolding enthalpy (van 't Hoff) [kcal/mol]
MKKAVINGEQIRSISDLHQTLKKELALPEYYGENLDALWDALTGWVEYPLVLEWRQFEQSKQLTENGAESVLQVFREAKAEGADITIILS [C41A C83A] | 73.6 | 73 | 71
MKKAVINGEQIRSISDLHQTLKKELALPEYYGENLDALWDCLTGWVEYPLVLEWRQFEQSKQLTENGAESVLQVFREAKAEGADITIILS [C83A] | 71.9 | 49 | 68
MKKAVINGEQIRSISDLHQTLKKELALPEYYGENLDALWDALTGWVEYPLVLEWRQFEQSKQLTENGAESVLQVFREAKAEGCDITIILS [C41A] | 74.1 | 51 | 73
